Reference: patent US20230077716A1 (published 2023)
Several values for one entry are separate records, joined by “and”; a condition that tells them apart may be missing. Identical values can stand only once.

Biological target: recombinant B/Phuket/3073/2013 NA ectodomain (tetramer) (UniProt P16199 79-465)
Test: BLI

B1: 2E01 Fab (Fab, V domains shown)
VH: EVQLVQSGAEVKKPGSSVKVSCKASGYTFINHALSWVRQAPGQGLEWVGGIIPIFGLAKYGQKFQDRVTITADESTKTAYMDLRSLRSDDTAVYYCARDTVAVYEDFDWSSPYFFYMDVWGKGTTVTVSS
VL: EIVLTQSPATLSLFPGERATLSCRASQSAGSKSLAWYQHKVGQPPRLLINGASSRATGIPDRFSGSGSGPDFNLTISRLEPEDFAVYYCQRYGTSLVTFGGGTKVEIK
Kd: 441 nM and 150 nM
